Experimental data taken from the Human Domainome abundance scans (Beltran et al. 2025).
± gives the uncertainty stated by the source.

Test: abundance fitness (aPCA) (normalised: wild type 0, dead -1); higher = more abundant; growth selection in yeast, the domain comes from the species named
Settings: Homo sapiens

Q: With “Lipoamide acyltransferase component of branched-chain alpha-keto acid dehydrogenase complex, mitochondrial T171M, P11182” as the substance, how does the abundance fitness read?
A: 0.031 ± 0.062

Q: For “Lipoamide acyltransferase component of branched-chain alpha-keto acid dehydrogenase complex, mitochondrial T171N, P11182”, which abundance fitness is on record?
A: -0.012 ± 0.058

Q: For “Lipoamide acyltransferase component of branched-chain alpha-keto acid dehydrogenase complex, mitochondrial T171P, P11182”, which abundance fitness is on record?
A: -0.422 ± 0.11

Q: For “Lipoamide acyltransferase component of branched-chain alpha-keto acid dehydrogenase complex, mitochondrial T171Q, P11182”, which abundance fitness is on record?
A: -0.391 ± 0.09

Q: With “Lipoamide acyltransferase component of branched-chain alpha-keto acid dehydrogenase complex, mitochondrial T171R, P11182” as the substance, how does the abundance fitness read?
A: -0.578 ± 0.058

Q: For “Lipoamide acyltransferase component of branched-chain alpha-keto acid dehydrogenase complex, mitochondrial T171S, P11182”, which abundance fitness is on record?
A: -0.267 ± 0.075

Q: Which abundance fitness does the source give for “Lipoamide acyltransferase component of branched-chain alpha-keto acid dehydrogenase complex, mitochondrial T171V, P11182” here?
A: 0.019 ± 0.057

Q: Which abundance fitness does the source give for “Lipoamide acyltransferase component of branched-chain alpha-keto acid dehydrogenase complex, mitochondrial T171W, P11182” here?
A: -0.49 ± 0.075

Q: Which abundance fitness does the source give for “Lipoamide acyltransferase component of branched-chain alpha-keto acid dehydrogenase complex, mitochondrial T171Y, P11182” here?
A: -0.022 ± 0.062

Q: Which abundance fitness does the source give for “Lipoamide acyltransferase component of branched-chain alpha-keto acid dehydrogenase complex, mitochondrial T174A, P11182” here?
A: -0.347 ± 0.066

Q: With “Lipoamide acyltransferase component of branched-chain alpha-keto acid dehydrogenase complex, mitochondrial T174C, P11182” as the substance, how does the abundance fitness read?
A: -0.141 ± 0.081

Q: Which abundance fitness does the source give for “Lipoamide acyltransferase component of branched-chain alpha-keto acid dehydrogenase complex, mitochondrial T174D, P11182” here?
A: 0.003 ± 0.058

Q: Which abundance fitness does the source give for “Lipoamide acyltransferase component of branched-chain alpha-keto acid dehydrogenase complex, mitochondrial T174E, P11182” here?
A: -0.389 ± 0.053

Q: For “Lipoamide acyltransferase component of branched-chain alpha-keto acid dehydrogenase complex, mitochondrial T174F, P11182”, which abundance fitness is on record?
A: -0.403 ± 0.075

Q: Which abundance fitness does the source give for “Lipoamide acyltransferase component of branched-chain alpha-keto acid dehydrogenase complex, mitochondrial T174G, P11182” here?
A: -0.39 ± 0.038

Q: Which abundance fitness does the source give for “Lipoamide acyltransferase component of branched-chain alpha-keto acid dehydrogenase complex, mitochondrial T174H, P11182” here?
A: -0.206 ± 0.069

Q: Which abundance fitness does the source give for “Lipoamide acyltransferase component of branched-chain alpha-keto acid dehydrogenase complex, mitochondrial T174I, P11182” here?
A: -0.601 ± 0.11

Q: With “Lipoamide acyltransferase component of branched-chain alpha-keto acid dehydrogenase complex, mitochondrial T174K, P11182” as the substance, how does the abundance fitness read?
A: -0.379 ± 0.063

Q: Which abundance fitness does the source give for “Lipoamide acyltransferase component of branched-chain alpha-keto acid dehydrogenase complex, mitochondrial T174L, P11182” here?
A: -0.724 ± 0.059

Q: For “Lipoamide acyltransferase component of branched-chain alpha-keto acid dehydrogenase complex, mitochondrial T174M, P11182”, which abundance fitness is on record?
A: -0.643 ± 0.084

Q: With “Lipoamide acyltransferase component of branched-chain alpha-keto acid dehydrogenase complex, mitochondrial T174N, P11182” as the substance, how does the abundance fitness read?
A: -0.064 ± 0.13

Q: For “Lipoamide acyltransferase component of branched-chain alpha-keto acid dehydrogenase complex, mitochondrial T174V, P11182”, which abundance fitness is on record?
A: -0.773 ± 0.052

Q: With “Lipoamide acyltransferase component of branched-chain alpha-keto acid dehydrogenase complex, mitochondrial T174W, P11182” as the substance, how does the abundance fitness read?
A: -0.787 ± 0.045

Q: Which abundance fitness does the source give for “Lipoamide acyltransferase component of branched-chain alpha-keto acid dehydrogenase complex, mitochondrial T213C, P11182” here?
A: -0.179 ± 0.074

Q: For “Lipoamide acyltransferase component of branched-chain alpha-keto acid dehydrogenase complex, mitochondrial T213D, P11182”, which abundance fitness is on record?
A: 0.049 ± 0.058

Q: With “Lipoamide acyltransferase component of branched-chain alpha-keto acid dehydrogenase complex, mitochondrial T213F, P11182” as the substance, how does the abundance fitness read?
A: -0.222 ± 0.069

Q: Which abundance fitness does the source give for “Lipoamide acyltransferase component of branched-chain alpha-keto acid dehydrogenase complex, mitochondrial T213G, P11182” here?
A: 0.093 ± 0.036

Q: With “Lipoamide acyltransferase component of branched-chain alpha-keto acid dehydrogenase complex, mitochondrial T213H, P11182” as the substance, how does the abundance fitness read?
A: -0.062 ± 0.058

Q: With “Lipoamide acyltransferase component of branched-chain alpha-keto acid dehydrogenase complex, mitochondrial T213K, P11182” as the substance, how does the abundance fitness read?
A: 0.145 ± 0.071

Q: For “Lipoamide acyltransferase component of branched-chain alpha-keto acid dehydrogenase complex, mitochondrial T213L, P11182”, which abundance fitness is on record?
A: -0.185 ± 0.056

Q: For “Lipoamide acyltransferase component of branched-chain alpha-keto acid dehydrogenase complex, mitochondrial T213M, P11182”, which abundance fitness is on record?
A: -0.122 ± 0.097

Q: Which abundance fitness does the source give for “Lipoamide acyltransferase component of branched-chain alpha-keto acid dehydrogenase complex, mitochondrial T213P, P11182” here?
A: -0.075 ± 0.065

Q: With “Lipoamide acyltransferase component of branched-chain alpha-keto acid dehydrogenase complex, mitochondrial T213Q, P11182” as the substance, how does the abundance fitness read?
A: 0.005 ± 0.047

Q: Which abundance fitness does the source give for “Lipoamide acyltransferase component of branched-chain alpha-keto acid dehydrogenase complex, mitochondrial T213R, P11182” here?
A: 0.066 ± 0.045

Q: For “Lipoamide acyltransferase component of branched-chain alpha-keto acid dehydrogenase complex, mitochondrial T213S, P11182”, which abundance fitness is on record?
A: -0.008 ± 0.046
